What was measured:
hsc70 [1] = target: T1, hsc70 (Bos taurus, UniProt P19120); assay: UBP far-western analysis on hsc70; type: binding; design: purchased Stressgen; conditions: GST fusions as probe
Description: (§1) FIG. 13A: Thirty μg of HeLa cell lysate was separated by SDS-PAGE in three identical lanes, blotted to nitrocellulose and probed with either, no probe (none), GST alone, or GST-UBP. The far-western blot was then developed with anti-GST antibody to reveal bands which interact with UBP. The arrow to the right indicates a 70 kD band detected by the GST-UBP fusion. The numbers to the left of each blot represent molecular weights in kilodaltons. […] FIG. 13C, Samples from the GST-UBP pull down assay were analyzed by western blot for the presence hsc70. At the bottom of the gel, the contents of each reaction are indicated by the plus symbols. The NaCl concentration of the washing buffer (100, 200, 300, and 500 mM) is indicated at the top of each lane. The arrow to the right of the blot indicates the position of the hsc70 band.
The term “hsc70” is used when referring to both hsp70 and its nearly identical constitutive counterpart, hsc70. […] The numbers to the left of the blots indicate the molecular weights in kilodaltons. The diagram below the blots indicates regions of UBP contained in each fusion construct. The column to the right summarizes the results, where a plus symbol indicates binding and a minus symbol indicates no binding.
Western blots were performed using standard techniques. […]

hsc70 [2] = target: T1, hsc70; assay: Refolding of heat-denatured luciferase by hsc70; conditions: 28 nM hsc70, 1 mM ATP, 0 to 100 minutes at 30° C.
hsp90 = assay: UBP far-western analysis on hsp90; type: binding; conditions: purified hsp90
Description: The numbers to the left of the blots indicate the molecular weights in kilodaltons. The regions of UBP contained in each fusion construct are diagrammed below the blots. The right column summarizes the results: a plus symbol indicates binding and a minus symbol indicates no binding.
Western blots were performed using standard techniques. Briefly, 30 μg HeLa cytoplasmic extract or 20 ng of hsc70, hsp70, or hsp90 were denatured in 1×SDS sample buffer. The samples were loaded on a 10% polyacrylamide gel. Separated protein was transferred to nitrocellulose membranes. The membranes were blocked in 5% dry milk protein in TBS (20 mM Tris [pH 7.4], 100 mM NaCl) for 45 min. […] Primary antibody, either anti-hsp70 or hsp90 monoclonal antibodies, or anti-UBP rabbit polyclonal antibody was incubated with the blots at appropriate concentrations (1:1000 dilutions for each) in 5% milk protein in TBS for 2 hours at 4° C. with gentle rocking. The membranes were washed with TBS for 10 minutes. Secondary antibody, either alkaline phosphatase conjugated goat anti-mouse IgG or alkaline phosphatase conjugated goat anti-rabbit IgG diluted at 1:5000 in 5% Milk in TBS, was incubated with the blots for 2 hours at 4° C. with gentle rocking. […]

hsc70 [3] = target: T1, hsc70; assay: Hsc70 ATPase assay; type: biochemical; design: purchased Stressgen; conditions: 28 nM hsc70, 0-176 nM UBP, 1 hr at 30° C.
Description: ADP was separated from ATP by thin-layer chromatography and quantified using a phosphorimager. […] The data are represented as the percent ATP hydrolysis and are plotted as a function of time from 0-75 minutes.
ATPase assays were performed essentially as described (Liberek et al., 1991, J. Biol. Chem. 266:14491-14496). […] The reactions were carried out at 30° C. in ATPase buffer (30 mM 4-(-2 hydroxymethl)-1-piperazineethanesulfonic acid (HEPES) buffer pH 7.5, 40 mM KCl, 50 mM NaCl, 5 mM MgCl2, and 2 mM dithiothreitol). […] A 5 μl aliquot of each reaction was directly loaded onto a polyethylamine-cellulose (PEI)-thin layer sheet (Selecto Scientific, Suwanee, Ga.). The products were separated from the substrate by chromatography using 1 M formic acid/1 M LiCl (1:1, vol/vol) as a vehicle. The location of ADP and ATP on the plates was visualized by use of a Phosphorimager (Molecular Dynamics, San Jose, Calif.). […] Five μl aliquots of each reaction were taken at time points of 0, 15, 30, 45, 60, 75 minutes. The samples were analyzed as previously described. Data were quantified and expressed as the percent ATP hydrolysis.

hsc70 [4] = target: T1, hsc70; assay: GST-UBP/hsc70 pull down assay with NaCl washes; type: binding; design: purchased Stressgen; conditions: washes of increasing NaCl, up to 0.5 M NaCl
Description: as §1
Either GST or GST-UBP protein was incubated with a 100 μl bed volume of beads in a total volume of 300 μl of binding buffer at 4° C. with gentle rocking for 2 hours. The beads were washed and then blocked with 5% BSA in binding buffers. The beads were washed in binding buffer then incubated with 200 ng of hsc70 in binding buffer for 2 hours at 4° C. […] The samples were heated to 80° C. for 3 minutes then supernatants recovered by centrifugation were analyzed by western blot for hsc70.

HIV-1 = conditions: overexpression in virus-producing cells (Callahan et al., 1998); cited from earlier work
SN hantavirus = type: cell-based, Sin Nombre virus

T1 sequence (P19120 2-650 limits assumed): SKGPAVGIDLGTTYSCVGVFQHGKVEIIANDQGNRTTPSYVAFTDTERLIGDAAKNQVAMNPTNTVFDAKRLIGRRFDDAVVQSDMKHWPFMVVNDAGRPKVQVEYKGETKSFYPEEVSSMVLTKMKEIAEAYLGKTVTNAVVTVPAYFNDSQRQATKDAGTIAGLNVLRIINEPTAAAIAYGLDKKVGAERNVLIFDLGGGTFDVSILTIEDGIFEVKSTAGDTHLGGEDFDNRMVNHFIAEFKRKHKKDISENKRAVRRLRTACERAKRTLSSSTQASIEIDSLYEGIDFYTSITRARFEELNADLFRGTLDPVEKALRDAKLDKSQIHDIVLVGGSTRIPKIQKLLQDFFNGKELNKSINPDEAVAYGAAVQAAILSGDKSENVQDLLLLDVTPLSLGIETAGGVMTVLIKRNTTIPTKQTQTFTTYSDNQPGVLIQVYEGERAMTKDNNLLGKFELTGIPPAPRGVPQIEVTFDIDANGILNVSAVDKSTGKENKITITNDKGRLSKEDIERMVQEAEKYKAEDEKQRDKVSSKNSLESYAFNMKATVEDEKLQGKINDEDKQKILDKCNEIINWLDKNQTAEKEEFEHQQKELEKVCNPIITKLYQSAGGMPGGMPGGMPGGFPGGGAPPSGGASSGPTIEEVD

Compound	interaction with hsc70 (hsc70 [1])	inhibition of hs70-dependent refolding of luciferase (hsc70 [2])	association with hsp90 (hsp90)	hsc70-mediated hydrolysis of ATP (hsc70 [3])	stability of UBP-hs70 interaction to NaCl washes (hsc70 [4])	HIV-1 virion release (HIV-1)	inhibition of viral RNA titers (SN hantavirus)	viral RNA titers after heat shock (SN hantavirus)
UBP: Viral protein U (Vpu) binding protein, cellular tetratricopeptide repeat (TPR) co-chaperone family member	does stably associate	about 30%	could associate	negatively affected	maintained even in the presence of relatively high salt concentrations	significant reduction		
O=c1c(O)c(-c2ccc(O)c(O)c2)oc2cc(O)cc(O)c12 [quercetin]							7.3 fold	did not have increased levels of viral RNA titers
